# From article PMC10992437, “Engineering a norcoclaurine synthase for one-step synthesis of (S)-1-aryl-tetrahydroisoquinolines” (Bioresources and Bioprocessing, 2023)
# Legend:
# O=Cc1ccc(-c2ccccc2)cc1 = assay: purified protein; format: biochemical, Thalictrum flavum; settings: co-substrate dopamine (concentration not stated), aldehyde 0.5-50 mM, general assay: HEPES pH 7.5, 20% DMSO, 5 mM ascorbic acid
# O=Cc1ccccc1 = assay: purified protein; format: biochemical, Thalictrum flavum; settings: co-substrate dopamine (concentration not stated), aldehyde 0.5-50 mM, general assay: HEPES pH 7.5, 20% DMSO, 5 mM ascorbic acid
Substance,Km (O=Cc1ccc(-c2ccccc2)cc1) [mM],Km (O=Cc1ccccc1) [mM]
TfNCS (norcoclaurine synthase) (Thalictrum flavum subsp. glaucum; L68T/M97V),14.6 ± 5.1,20.1 ± 5.3
TfNCS (norcoclaurine synthase) (Thalictrum flavum subsp. glaucum),15.0 ± 4.6,22.3 ± 6.7
